According to patent US7795390B2, “Biological substance nesfatin and its related substances and uses thereof” (Teijin Pharma Limited, priority 2005, dated 2010):

How the values were obtained:
Zucker fa/fa rats = test: nesfatin-1 administration into the third ventricle of Zucker fa/fa rats, food intake; format: in vivo, rat; settings: recombinant mouse nesfatin-1 5 pmol
Experimental: (§1) As rats, 8 week-old male Zucker fa/fa (Zucker) rats and Zucker +/+(Lean) rats as the control animal were purchased from Nippon Charles River, and were housed in a cycle of 12 hours of the light period from 6 a.m. to 6 p.m. and 12 hours of the dark period from 6 p.m. to 6 a.m. the next morning and fed a powder food (Nippon Clea, CE-2), and kept at 22° C., and throughout the experiment period, a similar condition was continued in housing. After preliminary housing of the purchased rats for over one week, individuals weighing 200-250 g were selected from among 9 to 10 week-old individuals.
(§2) The sample used for administration was one in which the recombinant mouse nesfatin-1 prepared in Working Example 16 was dissolved to 5 pmol in 5 μl of PBS, and as the control sample physiological saline (Saline) was used. Five μl of the samples prepared were administered into the third ventricle of each rat for the group of five each of Zucker rats and the Lean rats per group (the Zucker/nesfatin-1 group, the Lean/nesfatin-1 group, the Zucker/Saline group, the Lean/Saline group). […]
(§3) After intraventricular administration, the amount of food intake was determined by measuring the amount decreased of the powder food for each rat during 0-1 hour, 1-3 hours and 3-6 hours. […]

mice = test: Intraperitoneal and subcutaneous administration of nesfatin-1 to mice, food intake; format: in vivo, mouse
Experimental: The sample used in the administration was the recombinant mouse nesfatin-1 prepared in Working Example 16 dissolved in 200 μl of physiological saline so as to contain 10 nmol, and as the control sample, physiological saline (Saline) alone was used. Using a tuberculin syringe equipped with a 25G needle, 200 μl each of the samples was administered once into the abdominal cavity or the hypodermis of the back of each mouse, and the time of administration was immediately before the start (6 p.m.) of the dark period. Other conditions were similar to those in Working Example 18.

Zucker +/+ (Lean) rats = test: nesfatin-1 administration into the third ventricle of Zucker +/+ (Lean) rats, food intake; format: in vivo, rat; settings: recombinant mouse nesfatin-1 5 pmol
Experimental: as §1, §2, §3

Wistar rats = test: Intraventricular continuous administration of nesfatin-1 by osmotic pump, food intake and body weight; format: in vivo, rat
Experimental: The administration of nesfatin-1 was carried out into the ventricle by an osmotic pump for 10 consecutive days. Among 8 week-old male Wistar rats (purchased from Nippon SLC), those individuals weighing 200-250 g were used. The rats received intraperitoneal administration of 40 mg/kg body weight of pentobarbital sodium for anesthesia. After the hair was removed from the head, they were fixed in a brain stereotaxic apparatus (David Kopf Instruments, Model 962) and the scalp was incised and a 23G needle (guide cannula) was implanted so that the tip reaches the third ventricle (2.5 mm behind the bregma, 9.5 mm from the surface). One week after implanting the guide cannula, the animals were subjected to the experiment. The osmotic pump used was Alzet's Model 2002. Nesfatin-1 (nesfatin-1 administration group) dissolved in physiological saline that was filter-sterilized with a 0.22 μm Millex GV filter (Millpore Co. Ltd.), or sterilized physiological saline alone (control group) were injected into the osmotic pump immediately before use, and were primed in sterilized physiological saline from the day before use. The osmotic pump to which each sample was connected to a tube connected to the injection cannula, and through the guide cannula previously implanted the injection cannula was fixed so that the tip of the cannula reaches the third ventricle of the rat. In this form of use, the sample is injected to the third ventricle at a flow rate of 12 μl per 24 hours, and in the nesfatin-1 administration group, it is equivalent to 5 pmol of nesfatin-1 per day administered to the ventricle. […] The measurement of the amount of food intake started from the day after the cannula and the osmotic pump were implanted, and the weight of the residual food was measured at 9 a.m. every day, and by determining the difference from the weight of the food on the previous day, the amount of food intake of the day (24 hours) was calculated. From day 6 after the start of administration, body weight was measured at the time of measuring the amount of food intake, and changes in body weight were also recorded.

[1] = 0-1 hour and 1-3 hours, P<0.001 vs Saline
[2] = 5 pmol per day, osmotic pump, third ventricle, 10 consecutive days, vs saline

B1: nesfatin-1: 82-residue peptide, amino acid Nos. 25 to 106 of nesfatin (SEQ ID NO: 15), solid-phase synthesis (peptide, listed as Rattus norvegicus)
chain: VPIDVDKTKVHNVEPVESARIEPPDTGLYYDEYLKQVIEVLETDPHFREKLQKADIEEIRSGRLSQELDLVSHKVRTRLDEL
amount of food intake (Zucker fa/fa rats; [1]): significant reduction
amount of food intake (Zucker fa/fa rats; 3-6 hours, P<0.05): significant reduction
amount of food intake (mice; 10 nmol intraperitoneally (ip), 0-3 hours, P<0.05 vs saline): statistically significant decrease
amount of food intake (mice; 10 nmol intraperitoneally (ip), 0-14 hours): the decrease in the amount of food intake was not significant
amount of food intake (mice; 10 nmol subcutaneously (sc), 0-3 hours): tended to decrease
amount of food intake (mice; 10 nmol subcutaneously (sc), 0-14 hours, P<0.005 vs saline): the decrease was significant
amount of food intake (Zucker +/+ (Lean) rats; [1]): decreased
amount of food intake (Zucker +/+ (Lean) rats; 3-6 hours): No difference
amount of food intake of the day (24 hours) (Wistar rats; [2]): a decrease in the amount of food intake was noted from day 1
rate of increase in body weight (Wistar rats; [2]): significantly declined
food intake and/or body weight gain (Wistar rats; recombinant highly purified nesfatin-1 (Working Example 16), intraventricular as in Working Example 13): the effect of suppressing food intake and/or suppressing body weight gain was noted
